# Measurements from patent US20260167721A1 (ABLEXIS, published 2026).
# Substitutions are numbered along the chain they refer to.
# B1: Control Humanized anti-CD3 (high affinity) scFv-Fc knob/TM, as bispecific with gemtuzumab (bispecific antibody)
# scFv: EVQLVESGGGLVQPGGSLRLSCAASGFTFSTYAMNWVRQAPGKGLEWVGRIRSKYNNYATYYADSVKGRFTISRDDSKNTLYLQMNSLRAEDTAVYYCVRHGNFGDSYVSWFAYWGQGTLVTVSSGKPGSGKPGSGKPGSGKPGSQAVVTQEPSLTVSPGGTVTLTCGSSTGAVTTSNYANWVQQKPGKSPRGLIGGTNKRAPGVPARFSGSLLGGKAALTISGAQPEDEADYYCALWYSNHWVFGGGTKLTVLGGGGSDKTHTCPPCPAPEFEGGPSVFLFPPKPKDTLMISRTPEVTCVVVDVSHEDPEVKFNWYVDGVEVHNAKTKPREEQYNSTYRVVSVLTVLHQDWLNGKEYKCKVSNKALPASIEKTISKAKGQPREPQVYTLPPCREEMTKNQVSLWCLVKGFYPSDIAVEWESNGQPENNYKTTPPVLDSDGSFFLYSKLTVDKSRWQQGNVFSCSVMHEALHNHYTQKSLSLSPGK
# heavy: EVQLVQSGAEVKKPGSSVKVSCKASGYTITDSNIHWVRQAPGQSLEWIGYIYPYNGGTDYNQKFKNRATLTVDNPTNTAYMELSSLRSEDTAFYYCVNGNPWLAYWGQGTLVTVSSASTKGPSVFPLAPSSKSTSGGTAALGCLVKDYFPEPVTVSWNSGALTSGVHTFPAVLQSSGLYSLSSVVTVPSSSLGTQTYICNVNHKPSNTKVDKRVEPKSCDKTHTCPPCPAPEFEGGPSVFLFPPKPKDTLMISRTPEVTCVVVDVSHEDPEVKFNWYVDGVEVHNAKTKPREEQYNSTYRVVSVLTVLHQDWLNGKEYKCKVSNKALPASIEKTISKAKGQPREPQVCTLPPSREEMTKNQVSLSCAVKGFYPSDIAVEWESNGQPENNYKTTPPVLDSDGSFFLVSKLTVDKSRWQQGNVFSCSVMHEALHNRFTQKSLSLSPGK
# light: DIQLTQSPSTLSASVGDRVTITCRASESLDNYGIRFLTWFQQKPGKAPKLLMYAASNQGSGVPSRFSGSGSGTEFTLTISSLQPDDFATYYCQQTKEVPWSFGQGTKVEVKRTVAAPSVFIFPPSDEQLKSGTASVVCLLNNFYPREAKVQWKVDNALQSGNSQESVTEQDSKDSTYSLSSTLTLSKADYEKHKVYACEVTHQGLSSPVTKSFNRGEC
# B2: Control Humanized anti-CD3 (low affinity) scFv-Fc knob/TM, as bispecific with gemtuzumab (bispecific antibody)
# scFv: B1 scFv with A113D
# heavy: B1 heavy
# light: B1 light
# B3: ABL-CD3-33 (antibody, V domains shown)
# VH: EVQLVESGGGLVKPGGSLRLSCAASGFTFSSYSMNWVRQAPGKGLEWVSSISRSSSYIYYADSVKGRFTISRDNAKNSLYLQMNSLRAEDTAVYYCAREPPTLGMDYWGQGTLVTVSS
# VL: NFMLTQPHSVSESPGKTVTISCTRSSGSIASNYVQWYQQRPGSSPTTVIYEDNQRPSGVPDRFSGSIDSSSNSASLTISGLKTEDEADYYCQSYYNSNRVFGGGTKLTVL
# notes: Chimeric hybridoma mAb: human V, CH1, upper hinge; mouse middle hinge, CH2, CH3
# B4: CD3 × CD33-BspAb67 (bispecific antibody)
# chain 1: not shown
# chain 2: B1 heavy
# chain 3: B1 light
# B5: CD3 × CD33-BspAb70 (bispecific antibody)
# chain 1: EVQLVESGGGLVKPGGSLRLSCAASGFTFSSYSMKWVRQAPGKCLEWVSSISSSSSYIYYADSVKGRFTISRDNAKNSLYLQMNSLRAEDTAVYYCARDRGELTLWYWGQGTLVTVSSGGGGSGGGGSGGGGSGGGGSSYELTQPPSVSVSPGQTARITCSGDALPKKYAYWYQQKSGQAPVLVIYEDSKRPSGIPERFSGSSSGTMATLTISGAQVEDEADYYCYSTDSSGNHWVFGCGTKLTVLDKTHTCPPCPAPEFEGGPSVFLFPPKPKDTLMISRTPEVTCVVVDVSHEDPEVKFNWYVDGVEVHNAKTKPREEQYNSTYRVVSVLTVLHQDWLNGKEYKCKVSNKALPASIEKTISKAKGQPREPQVYTLPPCREEMTKNQVSLWCLVKGFYPSDIAVEWESNGQPENNYKTTPPVLDSDGSFFLYSKLTVDKSRWQQGNVFSCSVMHEALHNHYTQKSLSLSPGK
# chain 2: B1 heavy
# chain 3: B1 light
# B6: CD3 × CD33-BspAb80 (bispecific antibody)
# chain 1: QVQLQESGPGLVKPSETLSLTCTVSGGSISSYYWSWIRQPAGKCLEWIGRIYTSGSTKYNPSLKSRVTMSVDTSKNQFSLKLISVTAADTAVYFCARERIRDLYFDYWGQGTLVTVSSGGGGSGGGGSGGGGSGGGGSNFMLTQPHSVSESPGKTVTISCTRTSGSIASNYVQWYQQRPGSSPTTVIYEDNQRPSGVPDRFSGSIDSSSNSASLTISGLKTEDEAAYYCQSYDRSNRVFGCGTKLTVLDKTHTCPPCPAPEFEGGPSVFLFPPKPKDTLMISRTPEVTCVVVDVSHEDPEVKFNWYVDGVEVHNAKTKPREEQYNSTYRVVSVLTVLHQDWLNGKEYKCKVSNKALPASIEKTISKAKGQPREPQVYTLPPCREEMTKNQVSLWCLVKGFYPSDIAVEWESNGQPENNYKTTPPVLDSDGSFFLYSKLTVDKSRWQQGNVFSCSVMHEALHNHYTQKSLSLSPGK
# chain 2: B1 heavy
# chain 3: B1 light
# B7: CD3 × CD33-BspAb81 (bispecific antibody)
# chain 1: QVQLQESGPGLVKPSQTLSLTCTVSGGSISSGGYYWSWIRQHPGKCLEWIGYIYYSGSTYYNPSLKSRVTISVDTSKDQFSLKLSSVTAADTAVYYCARERKTSLPFDIWGQGTMVTVSSGGGGSGGGGSGGGGSGGGGSNFMLTQPHSVSESPGKTVTISCTRSSGSIASNYVQWYQQRPGSSPTTVIYEDNQRPSGVPDRFSGSIDSSSNSASLTISGLKTEDEAYYYCQSFDSSNRVFGCGTKLTVLDKTHTCPPCPAPEFEGGPSVFLFPPKPKDTLMISRTPEVTCVVVDVSHEDPEVKFNWYVDGVEVHNAKTKPREEQYNSTYRVVSVLTVLHQDWLNGKEYKCKVSNKALPASIEKTISKAKGQPREPQVYTLPPCREEMTKNQVSLWCLVKGFYPSDIAVEWESNGQPENNYKTTPPVLDSDGSFFLYSKLTVDKSRWQQGNVFSCSVMHEALHNHYTQKSLSLSPGK
# chain 2: B1 heavy
# chain 3: B1 light
# B8: ABL-CD3-29 (antibody, V domains shown)
# VH: EVQLVQSGAEVKKPGESLKISCKGSGYSFISYWIAWVRQMPGKGLEWMGIIYPGDSETRYRPSFQGQVTISADKSINTAYLQWSSLKAADTAMYYCARQGAYDGFDIWGQGTMVTVSS
# VL: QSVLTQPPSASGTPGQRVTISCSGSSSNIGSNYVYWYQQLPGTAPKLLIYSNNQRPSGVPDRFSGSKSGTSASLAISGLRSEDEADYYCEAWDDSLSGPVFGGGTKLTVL
# notes: as for B3
# Columns and labels:
# [1] = target: CD3 on effector cells (human Pan-T or PBMC) (human, UniProt P07766 23-207; P04234 22-171; P09693 23-182; P20963 22-164); experiment: cell-based or functional assay
# Sequence of CD3 on effector cells (human Pan-T or PBMC) (P07766 23-207, chain 1 of 4): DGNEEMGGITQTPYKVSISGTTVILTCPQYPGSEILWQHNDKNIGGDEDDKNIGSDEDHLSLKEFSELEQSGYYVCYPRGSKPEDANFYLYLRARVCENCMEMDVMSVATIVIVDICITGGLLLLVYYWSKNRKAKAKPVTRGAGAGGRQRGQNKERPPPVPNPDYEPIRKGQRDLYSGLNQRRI
# Sequence of CD3 on effector cells (human Pan-T or PBMC) (P04234 22-171, chain 2 of 4): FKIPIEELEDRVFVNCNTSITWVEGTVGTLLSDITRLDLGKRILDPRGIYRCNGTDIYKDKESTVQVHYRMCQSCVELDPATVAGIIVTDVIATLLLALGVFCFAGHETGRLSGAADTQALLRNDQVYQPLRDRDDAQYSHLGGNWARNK
# Sequence of CD3 on effector cells (human Pan-T or PBMC) (P09693 23-182, chain 3 of 4): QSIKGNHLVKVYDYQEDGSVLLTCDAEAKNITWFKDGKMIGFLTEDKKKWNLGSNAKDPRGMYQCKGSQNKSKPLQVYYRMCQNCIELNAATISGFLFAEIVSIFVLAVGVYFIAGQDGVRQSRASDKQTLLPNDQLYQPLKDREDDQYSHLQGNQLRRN
# Sequence of CD3 on effector cells (human Pan-T or PBMC) (P20963 22-164, chain 4 of 4): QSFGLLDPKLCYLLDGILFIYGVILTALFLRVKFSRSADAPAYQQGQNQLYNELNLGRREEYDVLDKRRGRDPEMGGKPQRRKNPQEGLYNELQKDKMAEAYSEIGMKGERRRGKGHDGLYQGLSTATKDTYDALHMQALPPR
# recombinant CD3 proteins [2] = experiment: Octet (BLI), bispecific antibody against recombinant CD3 proteins
# [3] = target: T1, recombinant human CD3 epsilon/delta heterodimer (human, UniProt P07766 23-126; P04234 22-105); experiment: Octet BLI, mAb on FAB2G sensor, hCD3 E/D 200-50 nM; R^2 0.96
# T1 construct: Recombinant protein in solution (200-50 nM) in the Octet assay; also called hCD3 E/D; human CD3E/D
# T1 sequence (P07766 23-126, stated change not applied, chain 1 of 2): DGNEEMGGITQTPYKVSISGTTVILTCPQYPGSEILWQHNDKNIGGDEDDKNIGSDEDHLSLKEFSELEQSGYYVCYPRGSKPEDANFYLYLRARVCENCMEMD
# T1 sequence (P04234 22-105, stated change not applied, chain 2 of 2): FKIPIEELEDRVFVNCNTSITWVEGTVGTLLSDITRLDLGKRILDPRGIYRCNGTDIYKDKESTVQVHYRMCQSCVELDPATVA
# [4] = target: T2, recombinant human CD3 epsilon/gamma heterodimer (human, UniProt P07766 23-126; P09693 23-116); experiment: Octet BLI, mAb on FAB2G sensor, hCD3 E/G 200-50 nM; R^2 0.96
# T2 construct: Recombinant protein in solution (200-50 nM) in the Octet assay; also called hCD3 E/G
# T2 sequence (P07766 23-126, chain 1 of 2): as the sequence (P07766 23-126, stated change not applied, chain 1 of 2) above
# T2 sequence (P09693 23-116, chain 2 of 2): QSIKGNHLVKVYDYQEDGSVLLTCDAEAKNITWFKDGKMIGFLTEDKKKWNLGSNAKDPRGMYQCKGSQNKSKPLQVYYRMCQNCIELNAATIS
# recombinant CD3 proteins [5] = target: T3, recombinant CD3 proteins (UniProt P07766 23-126); experiment: Octet BLI, recombinant CD3; Full R^2 0.9882
# T3 construct: elsewhere it uses human CD3 E/D and E/G heterodimers
# T3 sequence (P07766 23-126): as the sequence (P07766 23-126, stated change not applied, chain 1 of 2) above
# recombinant CD3 proteins [6] = target: T3, recombinant CD3 proteins; experiment: Octet BLI, recombinant CD3; Full R^2 0.8253
# recombinant CD3 proteins [7] = target: T3, recombinant CD3 proteins; experiment: Octet BLI, recombinant CD3; Full R^2 0.9905
# recombinant CD3 proteins [8] = target: T3, recombinant CD3 proteins; experiment: Octet BLI, recombinant CD3; Full R^2 0.9881
# [9] = target: T2, recombinant human CD3 epsilon/gamma …; experiment: Octet BLI, mAb on FAB2G sensor, hCD3 E/G 200-50 nM; R^2 0.94
# [10] = target: T1, recombinant human CD3 epsilon/delta …; experiment: Octet BLI, mAb on FAB2G sensor, hCD3 E/D 200-50 nM; R^2 0.94
binder,measurement,setting,value
B1,"RTCC EC50 (nM), KILR HL-60 T Cell Redirection cytotoxic assay with CD33-expressing target cells",[1],0.03 nM
same,Kd,recombinant CD3 proteins [2],20.1 nM
same,Response,recombinant CD3 proteins [2],0.73
same,koff,recombinant CD3 proteins [2],0.00652 s⁻¹
same,kon,recombinant CD3 proteins [2],325000 M⁻¹ s⁻¹
B2,"RTCC EC50 (nM), KILR HL-60 T Cell Redirection cytotoxic assay with CD33-expressing target cells",[1],1.48 nM
same,Kd,recombinant CD3 proteins [2],50.3 nM
same,Response,recombinant CD3 proteins [2],0.3
same,koff,recombinant CD3 proteins [2],0.0121 s⁻¹
same,kon,recombinant CD3 proteins [2],241000 M⁻¹ s⁻¹
B3,Kd,[3],56.2 nM
same,Response,[3],0.33
same,koff,[3],0.0206 s⁻¹
same,kon,[3],366000 M⁻¹ s⁻¹
same,Kd,[4],60 nM
same,koff,[4],0.0155 s⁻¹
same,kon,[4],259000 M⁻¹ s⁻¹
B4,Kd,recombinant CD3 proteins [5],5.57 nM
same,koff,recombinant CD3 proteins [5],0.00234 s⁻¹
same,kon,recombinant CD3 proteins [5],421000 M⁻¹ s⁻¹
B5,Kd,recombinant CD3 proteins [6],9.11 nM
same,koff,recombinant CD3 proteins [6],0.00554 s⁻¹
same,kon,recombinant CD3 proteins [6],609000 M⁻¹ s⁻¹
B6,Kd,recombinant CD3 proteins [7],6.06 nM
same,koff,recombinant CD3 proteins [7],0.00186 s⁻¹
same,kon,recombinant CD3 proteins [7],308000 M⁻¹ s⁻¹
B7,Kd,recombinant CD3 proteins [8],69.4 nM
same,koff,recombinant CD3 proteins [8],0.00791 s⁻¹
same,kon,recombinant CD3 proteins [8],114000 M⁻¹ s⁻¹
B8,Kd,[9],2.5 nM
same,Response,[9],0.44
same,koff,[9],0.000852 s⁻¹
same,kon,[9],341000 M⁻¹ s⁻¹
same,Kd,[10],2.63 nM
same,koff,[10],0.000816 s⁻¹
same,kon,[10],310000 M⁻¹ s⁻¹
